According to article doi:10.1101/2021.03.09.434543:
Blank lines part the entries; values can stand above or below the molecule they belong to.

Columns and labels:
[1] = molecular target: OsFD7, FLIM-FRET fusion (rice (Oryza sativa)); test: FRET or BRET
[2] = molecular target: OsFD7 (OsbZIP62)-GST;OsFTL1-GST (Oryza sativa (rice);Oryza sativa (rice), UniProt B7F384;B7ELI3 1-274;1-276, |); test: EMSA
[3] = molecular target: OsFD7 (OsbZIP62)-GST;OsFTL1-GST;OsGF14b-GST (Oryza sativa (rice);Oryza sativa …, UniProt B7F384;B7ELI3;Q7XTE8 1-274;1-276;1-262, ||); test: EMSA
OsFTL1-GST = OsFTL1-GST (Oryza sativa (rice), UniProt B7ELI3 1-276); test: EMSA
OsGF14b-GST = OsGF14b-GST (Oryza sativa (rice), UniProt Q7XTE8 1-262); test: EMSA
OsFD7 (OsbZIP62)-GST = molecular target: T1, OsFD7 (OsbZIP62)-GST (Oryza sativa (rice), UniProt B7F384 1-274); test: EMSA
T1 sequence: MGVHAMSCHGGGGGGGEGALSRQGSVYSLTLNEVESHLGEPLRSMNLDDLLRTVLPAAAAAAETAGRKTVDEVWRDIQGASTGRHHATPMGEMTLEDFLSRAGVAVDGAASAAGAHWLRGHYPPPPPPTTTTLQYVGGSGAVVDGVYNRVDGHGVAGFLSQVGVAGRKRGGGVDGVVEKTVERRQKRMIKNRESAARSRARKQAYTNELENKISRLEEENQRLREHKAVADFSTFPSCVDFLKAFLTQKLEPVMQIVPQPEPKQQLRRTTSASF

Sequence of OsGF14b-GST (Q7XTE8 whole entry): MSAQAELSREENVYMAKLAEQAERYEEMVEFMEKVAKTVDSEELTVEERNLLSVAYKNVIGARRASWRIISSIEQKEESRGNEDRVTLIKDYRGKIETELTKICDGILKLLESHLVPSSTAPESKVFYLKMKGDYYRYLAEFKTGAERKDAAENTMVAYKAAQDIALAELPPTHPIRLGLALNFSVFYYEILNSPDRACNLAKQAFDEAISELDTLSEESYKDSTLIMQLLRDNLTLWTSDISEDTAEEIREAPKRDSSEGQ

- FRET efficiency [1]: 15.1%
Molecule: Hd3a, FLIM-FRET fusion (from UniProt Q93WI9 1-179) (natural protein)

- FRET efficiency [1]: 23.3%
Molecule: OsFTL1, FLIM-FRET fusion (natural protein)

B1: GB oligo (dsDNA)
DNA 1: GTCACATACACGTGTCAGCTCAG
DNA 2: CTGAGCTGACACGTGTATGTGAC
- binding result [2]: binds
- binding result [3]: binds
- binding result (OsFTL1-GST): no binding
- binding result (OsGF14b-GST): no binding
- binding result (OsFD7 (OsbZIP62)-GST): binds
